We go through 3 molecules from patent US20190375823A1 (Zymeworks, published 2019).

One data set has as its target T1, CD19 on Raji B cells (UniProt P15391 20-556, limits assumed).
T1 construct: whole, on cells; also called Raji CD19 B cells
T1 sequence (looked up): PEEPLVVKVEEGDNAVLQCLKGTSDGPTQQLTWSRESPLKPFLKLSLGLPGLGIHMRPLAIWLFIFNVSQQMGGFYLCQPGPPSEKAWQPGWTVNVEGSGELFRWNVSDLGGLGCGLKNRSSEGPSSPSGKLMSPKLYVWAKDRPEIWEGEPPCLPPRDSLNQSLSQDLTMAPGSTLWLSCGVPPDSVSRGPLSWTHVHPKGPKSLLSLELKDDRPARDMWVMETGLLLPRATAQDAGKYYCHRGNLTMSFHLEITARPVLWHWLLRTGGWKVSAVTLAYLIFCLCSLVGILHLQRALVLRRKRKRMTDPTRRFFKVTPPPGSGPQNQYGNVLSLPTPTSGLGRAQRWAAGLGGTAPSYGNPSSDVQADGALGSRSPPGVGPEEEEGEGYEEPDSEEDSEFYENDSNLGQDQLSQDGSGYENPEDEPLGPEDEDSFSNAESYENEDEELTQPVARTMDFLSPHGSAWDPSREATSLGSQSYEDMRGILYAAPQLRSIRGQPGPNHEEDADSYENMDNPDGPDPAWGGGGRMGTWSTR
As to the kind of experiment: FACS on Raji cells (CD19).

For another data set, the target named is T2, Human FcRn (hFcRn) (human, UniProt P55899 24-297; P61769 21-119, limits assumed).
T2 construct: also called neonatal Fc receptor
As to the kind of experiment: SPR, hFcRn immobilized, v1378 flowed over at pH 6.0. The source says: Methods are identical to Example 2, except the directionality of the assay was reversed.
On the technique in general: Surface plasmon resonance follows binding to a sensor surface in real time, without labels.

Data set [1] concerns the molecule itself. As to the kind of experiment: native gel after co-expression (1:1 DNA level).

T2 sequence (P55899 24-297 limits assumed, chain 1 of 2): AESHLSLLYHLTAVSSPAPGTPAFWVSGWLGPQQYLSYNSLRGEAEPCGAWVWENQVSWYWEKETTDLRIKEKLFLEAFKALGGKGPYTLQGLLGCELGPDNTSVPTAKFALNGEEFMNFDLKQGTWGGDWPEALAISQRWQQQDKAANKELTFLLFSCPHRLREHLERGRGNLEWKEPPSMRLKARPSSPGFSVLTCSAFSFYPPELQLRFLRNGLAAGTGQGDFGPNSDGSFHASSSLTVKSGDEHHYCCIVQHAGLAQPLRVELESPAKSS
T2 sequence (P61769 21-119 limits assumed, chain 2 of 2): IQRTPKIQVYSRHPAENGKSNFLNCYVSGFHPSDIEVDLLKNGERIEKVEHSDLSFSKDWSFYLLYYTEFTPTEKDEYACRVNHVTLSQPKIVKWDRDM

B1: V1093 (bispecific antibody)
anti-CD19 scFv fused to the N terminus of transporter polypeptide 1 (albumin 1-337): DIQLTQSPASLAVSLGQRATISCKASQSVDYDGDSYLNWYQQIPGQPPKLLIYDASNLVSGIPPRFSGSGSGTDFTLNIHPVEKVDAATYHCQQSTEDPWTFGGGTKLEIKGGGGSGGGGSGGGGSQVQLQQSGAELVRPGSSVKISCKASGYAFSSYWMNWVKQRPGQGLEWIGQIWPGDGDTNYNGKFKGKATLTADESSSTAYMQLSSLASEDSAVYFCARRETTTVGRYYYAMDYWGQGTTVTVSSGGSDAHKSEVAHRFKDLGEENFKALVLIAFAQYLQQCPFEDHVKLVNEVTEFAKTCVADESAENCDKSLHTLFGDKLCTVATLRETYGEMADCCAKQEPERNECFLQHKDDNPNLPRLVRPEVDVMCTAFHDNEETFLKKYLYEIARRHPYFYAPELLFFAKRYKAAFTECCQAADKAACLLPKLDELRDEGKASSAKQRLKCASLQKFGERAFKAWAVARLSQRFPKAEFAEVSKLVTDLTKVHTECCHGDLLECADDRADLAKYICENQDSISSKLKECCEKPLLEKSHCIAEVENDEMPADLPSLAADFVESKDVCKNYAEAKDVFLGMFLYEYARA
transporter polypeptide 2 (albumin 342-585) with anti-CD3 scFv at the C terminus: not shown
As a reminder, the Kd is the constant that tells how readily two partners part at equilibrium. A lower Kd goes with tighter binding. Consider B1, for which, in the data set with CD19 on Raji B cells, the dissociation constant Kd was determined as 49 nM.

B2: v1378: AlbuCORE_1 (ABH2) with anti-HER3 at the N terminus of fragment 1 and anti-HER2 (4D5) at the N terminus of fragment 2 (bispecific antibody)
chain 1: QVQLQESGGGLVKPGGSLRLSCAASGFTFSSYWMSWVRQAPGKGLEWVANINRDGSASYYVDSVKGRFTISRDDAKNSLYLQMNSLRAEDTAVYYCARDRGVGYFDLWGRGTLVTVSSASTGGGGSGGGGSGGGGSQSALTQPASVSGSPGQSITISCTGTSSDVGGYNFVSWYQQHPGKAPKLMIYDVSDRPSGVSDRFSGSKSGNTASLIISGLQADDEADYYCSSYGSSSTHVIFGGGTKVTVLGGGSDAHKSEVAHRFKDLGEENFKALVLIAFAQYLQQCPFEDHVKLVNEVTEFAKTCVADESAENCDKSLHTLFGDKLCTVATLRETYGEMADCCAKQEPERNECFLQHKDDNPNLPRLVRPEVDVMCTAFHDNEETFLKKYLYEIARRHPYFYAPELLFFAKRYKAAFTECCQAADKAACLLPKLDELRDEGKASSAKQRLKCASLQKFGERAFKAWAVARLSQRFPKAEFAEVSKLVTDLTKVHTECCHGDLLECADDRADLAKYICENQDSISSKLKECCEKPLLEKSHCIAEVENDEMPADLPSLAADFVESKDVCKNYAEAKDVFLGMFLYEYARA
chain 2: not shown
notes: also called variant 1378; anti-Her3xHer2 ABH2
B2 displayed a Kd in the data set with Human FcRn (hFcRn) of 970 nM.

B3: Albumin based Transporter polypeptide 1-Ver 1 (ABH1 fragment, albumin 1:293) (other)
chain: DAHKSEVAHRFKDLGEENFKALVLIAFAQYLQQCPFEDHVKLVNEVTEFAKTCVADESAENCDKSLHTLFGDKLCTVATLRETYGEMADCCAKQEPERNECFLQHKDDNPNLPRLVRPEVDVMCTAFHDNEETFLKKYLYEIARRHPYFYAPELLFFAKRYKAAFTECCQAADKAACLLPKLDELRDEGKASSAKQRLKCASLQKFGERAFKAWAVARLSQRFPKAEFAEVSKLVTDLTKVHTECCHGDLLECADDRADLAKYICENQDSISSKLKECCEKPLLEKSHCIAEV
notes: also called ABH1 transporter polypeptide A; ABH1 fragment 1
Consider B3, for which the binding result in data set [1] is “no binding”.
